Source: PMC7610652 (Nature structural & molecular biology, 2021)

T1: RPC5, subunit of the human RNA polymerase III heterodimer (human, UniProt Q9NVU0 1-708)
T1 sequence: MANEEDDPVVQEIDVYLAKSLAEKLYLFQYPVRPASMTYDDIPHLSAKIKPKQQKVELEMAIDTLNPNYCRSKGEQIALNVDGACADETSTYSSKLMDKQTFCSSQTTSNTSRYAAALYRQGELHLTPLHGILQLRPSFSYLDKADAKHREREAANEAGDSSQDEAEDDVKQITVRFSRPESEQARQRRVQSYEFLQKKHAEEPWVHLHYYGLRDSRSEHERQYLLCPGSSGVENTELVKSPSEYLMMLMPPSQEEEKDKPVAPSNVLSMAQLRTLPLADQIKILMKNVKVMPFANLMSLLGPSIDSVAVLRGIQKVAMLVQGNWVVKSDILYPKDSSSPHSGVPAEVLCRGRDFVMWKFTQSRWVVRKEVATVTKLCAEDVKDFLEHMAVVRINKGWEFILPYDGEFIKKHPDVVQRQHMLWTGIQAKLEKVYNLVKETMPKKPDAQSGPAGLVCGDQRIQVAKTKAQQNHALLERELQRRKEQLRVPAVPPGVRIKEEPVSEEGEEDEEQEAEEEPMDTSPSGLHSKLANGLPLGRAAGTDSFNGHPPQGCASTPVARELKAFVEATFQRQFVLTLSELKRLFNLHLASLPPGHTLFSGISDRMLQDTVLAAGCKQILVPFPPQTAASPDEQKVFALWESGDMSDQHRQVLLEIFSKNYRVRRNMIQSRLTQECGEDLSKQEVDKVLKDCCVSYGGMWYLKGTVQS

T2: RPC1, subunit of human RNA polymerase III (human, UniProt O14802 1-1390)
T2 sequence: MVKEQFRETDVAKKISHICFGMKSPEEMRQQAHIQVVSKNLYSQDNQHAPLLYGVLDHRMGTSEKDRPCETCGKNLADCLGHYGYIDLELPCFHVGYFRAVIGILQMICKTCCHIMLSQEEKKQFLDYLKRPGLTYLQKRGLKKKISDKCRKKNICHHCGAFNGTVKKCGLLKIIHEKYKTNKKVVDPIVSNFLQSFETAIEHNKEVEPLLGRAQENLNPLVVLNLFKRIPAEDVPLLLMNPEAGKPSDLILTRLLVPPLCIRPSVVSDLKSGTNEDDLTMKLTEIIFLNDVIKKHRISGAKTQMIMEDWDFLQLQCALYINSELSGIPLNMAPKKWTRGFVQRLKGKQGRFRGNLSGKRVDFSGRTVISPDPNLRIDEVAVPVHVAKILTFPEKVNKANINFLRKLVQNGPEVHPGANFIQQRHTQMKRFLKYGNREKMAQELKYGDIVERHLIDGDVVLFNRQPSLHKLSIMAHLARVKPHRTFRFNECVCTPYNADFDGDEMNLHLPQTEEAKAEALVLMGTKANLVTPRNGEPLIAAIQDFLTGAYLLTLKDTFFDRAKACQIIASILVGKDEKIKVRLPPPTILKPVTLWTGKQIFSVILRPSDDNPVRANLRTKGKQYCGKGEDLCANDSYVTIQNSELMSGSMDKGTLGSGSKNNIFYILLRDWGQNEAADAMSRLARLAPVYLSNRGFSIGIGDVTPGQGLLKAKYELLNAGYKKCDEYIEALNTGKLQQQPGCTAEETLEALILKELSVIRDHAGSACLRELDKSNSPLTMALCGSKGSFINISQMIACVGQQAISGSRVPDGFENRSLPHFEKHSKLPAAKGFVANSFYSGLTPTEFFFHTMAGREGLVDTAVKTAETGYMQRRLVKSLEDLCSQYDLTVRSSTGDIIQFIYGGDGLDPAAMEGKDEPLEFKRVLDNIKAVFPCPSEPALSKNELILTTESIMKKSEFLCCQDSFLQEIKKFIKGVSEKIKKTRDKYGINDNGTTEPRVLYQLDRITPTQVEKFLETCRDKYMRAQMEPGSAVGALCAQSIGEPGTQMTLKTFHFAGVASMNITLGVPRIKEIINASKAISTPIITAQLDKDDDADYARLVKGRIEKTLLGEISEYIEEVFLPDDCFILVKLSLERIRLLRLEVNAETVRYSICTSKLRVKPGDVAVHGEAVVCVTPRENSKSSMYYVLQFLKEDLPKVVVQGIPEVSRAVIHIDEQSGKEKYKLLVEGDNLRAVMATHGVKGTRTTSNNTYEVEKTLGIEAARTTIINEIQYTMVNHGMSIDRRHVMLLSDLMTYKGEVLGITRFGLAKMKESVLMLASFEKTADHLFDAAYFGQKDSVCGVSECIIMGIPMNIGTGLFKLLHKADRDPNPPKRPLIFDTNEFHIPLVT

T3: RPC3, subunit of the human RNA polymerase III heterotrimer (human, UniProt Q9BUI4 1-534)
T3 sequence: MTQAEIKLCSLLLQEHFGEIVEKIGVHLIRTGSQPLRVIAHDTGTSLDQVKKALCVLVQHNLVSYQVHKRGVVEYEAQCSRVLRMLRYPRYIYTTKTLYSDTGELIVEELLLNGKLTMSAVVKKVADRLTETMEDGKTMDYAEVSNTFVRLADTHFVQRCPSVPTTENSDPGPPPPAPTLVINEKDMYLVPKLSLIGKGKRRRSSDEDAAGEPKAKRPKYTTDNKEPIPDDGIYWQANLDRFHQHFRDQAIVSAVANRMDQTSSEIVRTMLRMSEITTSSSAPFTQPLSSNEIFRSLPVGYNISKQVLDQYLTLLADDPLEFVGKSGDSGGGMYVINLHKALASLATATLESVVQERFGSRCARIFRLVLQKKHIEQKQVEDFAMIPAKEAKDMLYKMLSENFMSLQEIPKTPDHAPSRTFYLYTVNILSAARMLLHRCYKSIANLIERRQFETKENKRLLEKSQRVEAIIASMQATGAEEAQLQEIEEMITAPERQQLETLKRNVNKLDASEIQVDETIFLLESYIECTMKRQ

B1: RPC4, subunit of the human RNA polymerase III heterodimer (natural protein)
chain: MSEGNAAGEPSTPGGPRPLLTGARGLIGRRPAPPLTPGRLPSIRSRDLTLGGVKKKTFTPNIISRKIKEEPKEEVTVKKEKRERDRDRQREGHGRGRGRPEVIQSHSIFEQGPAEMMKKKGNWDKTVDVSDMGPSHIINIKKEKRETDEETKQILRMLEKDDFLDDPGLRNDTRNMPVQLPLAHSGWLFKEENDEPDVKPWLAGPKEEDMEVDIPAVKVKEEPRDEEEEAKMKAPPKAARKTPGLPKDVSVAELLRELSLTKEEELLFLQLPDTLPGQPPTQDIKPIKTEVQGEDGQVVLIKQEKDREAKLAENACTLADLTEGQVGKLLIRKSGRVQLLLGKVTLDVTMGTACSFLQELVSVGLGDSRTGEMTVLGHVKHKLVCSPDFESLLDHKHR
B2: RPC7α, subunit of the human RNA polymerase III heterotrimer (natural protein)
chain: MAGNKGRGRAAYTFNIEAVGFSKGEKLPDVVLKPPPLFPDTDYKPVPLKTGEGEEYMLALKQELRETMKRMPYFIETPEERQDIERYSKRYMKVYKEEWIPDWRRLPREMMPRNKCKKAGPKPKKAKDAGKGTPLTNTEDVLKKMEELEKRGDGEKSDEENEEKEGSKEKSKEGDDDDDDDAAEQEEYDEEEQEEENDYINSYFEDGDDFGADSDDNMDEATY
B3: RPC10, TFIIS-like subunit of human RNA polymerase III (natural protein)
chain: not shown
B4: RPC8, stalk subunit of human RNA polymerase III (natural protein)
chain: MFVLVEMVDTVRIPPWQFERKLNDSIAEELNKKLANKVVYNVGLCICLFDITKLEDAYVFPGDGASHTKVHFRCVVFHPFLDEILIGKIKGCSPEGVHVSLGFFDDILIPPESLQQPAKFDEAEQVWVWEYETEEGAHDLYMDTGEEIRFRVVDESFVDTSPTGPSSADATTSSEELPKKEAPYTLVGSISEPGLGLLSWWTSN
B5: RPC6, subunit of the human RNA polymerase III heterotrimer (natural protein)
chain: MAEVKVKVQPPDADPVEIENRIIELCHQFPHGITDQVIQNEMPHIEAQQRAVAINRLLSMGQLDLLRSNTGLLYRIKDSQNAGKMKGSDNQEKLVYQIIEDAGNKGIWSRDIRYKSNLPLTEINKILKNLESKKLIKAVKSVAASKKKVYMLYNLQPDRSVTGGAWYSDQDFESEFVEVLNQQCFKFLQSKAETARESKQNPMIQRNSSFASSHEVWKYICELGISKVELSMEDIETILNTLIYDGKVEMTIIAAKEGTVGSVDGHMKLYRAVNPIIPPTGLVRAPCGLCPVFDDCHEGGEISPSNCIYMTEWLEF

Columns and labels:
Experiment in all cases: cryo-EM structure
[1] = target: T1, RPC5, subunit of the human RNA …
[2] = target: T2, RPC1, subunit of human RNA polymerase …
[3] = target: T3, RPC3, subunit of the human RNA …
[4] = target: B1
[5] = target: B2

| binding result [1] | binding result [2] | binding result [3] | binding result [4] | binding result [5] | Binder |
| --- | --- | --- | --- | --- | --- |
| binds | binds | – | – | – | B1 |
| – | binds | binds | – | – | B2 |
| binds | binds | – | binds | – | B3 |
| – | – | – | – | binds | B4 |
| – | binds | binds | – | – | B5 |
